Test system: K4 kissing-loop RNA reporter
Test: apparent KD of K4 kissing-loop reporter; higher = weaker reporter binding
Details: Eterna round: R107
Method: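 RNA-MaP round R107: designed RNA switches with theophylline, tryptophan, arginine or FMN aptamers are transcribed on-chip within common flanks. They are titrated with a labelled K4 kissing-loop RNA reporter in RNA-MaP buffer (100 mM Tris pH 7.5, 80 mM KCl, 4 mM MgCl2), without ligand or with the indicated ligand. Median apparent KD per design.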

[1] = input ligand: theophylline 20 uM
[2] = input ligand: tryptophan 2.4 mM
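Further: bound reporter read as fluorescence of individual clusters on recovered sequencing chips by microscopy, with normalized cluster intensities fitted with a binding model.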

Sequence	apparent KD of K4 kissing-loop reporter (input ligand: FMN 200 uM) [nM]	apparent KD of K4 kissing-loop reporter (input ligand: arginine 13.2 mM) [nM]	apparent KD of K4 kissing-loop reporter (input ligand: none) [nM]	apparent KD of K4 kissing-loop reporter [1] [nM]	apparent KD of K4 kissing-loop reporter [2] [nM]
AAGCAGUCACUCGAAACCAUCGAAGAUGGACGAGGACCGGUACGGCCGCCACUCGGAGUGAUGUUCCGAAGACUGCAAAAUAAAA	373	374	374	434	370
AAGCAGUCACUCGAAUCCAUCGAAGAUGGGCGAGGACCGGUACGGCCGCCACUCGGAGUGAUGUUCCGAAGACUGCAAAAUAAAA	262	264	419	786	378
AAGCAGUCACUCGUAGCCAUCGAAGAUGGUCGAGGACCGGUACGGCCGCCACUCGGAGUGAUGUUCCGAAGACUGCAAAAUAAAA	272	313	337	378	364
AAGCAGUCUCUUGUAAUCAUCGAAGAUGAACGAGGACCGGUACGGCCGCCACUCGGAGUGAUGUUCCGAAGACUGCAAAAUAAAA [MatMod 16 - Jieux - Exclusion - Tryptophan A]	650	494	676	873	219
AAGCAUUCUUCGGAAUGCAGACCCGCUGAGGAGGAUAUGACGAAAGUCAGAAGGUCUCAGUGAUGUUGAGGCCUCCUCAAUGGUC [whbob_Ex_FMNA__2th181]	212	160	155	160	162
AAGCAUUCUUCGGAUUGCAGACCCGCUGAGGAGGAUAUGACGAAAGUCAGAAGGUUUCAGUGAUGUUGAGGCCUCCUCAAUGGUC [whbob_Ex_FMNA__2th183]	280	259	250	255	263
AAGCCAGUGAUGUUGGCAAAAUUUACUGAAGGAGCGCGUGAAAACGCAGGUAGGUCGCAGAACCUUGCCAACUAACACGAAAGUG [Ex Arginine A K4 20]	261	237	253	469	251
AAGCCCAGUGAUGUUGGAAGCGCGUACGAUACCAGCGAAUCGGAACGCCCUUGGCAGCGUACAGAGUUGGCGGAAGAUAGGACAG [theeternabot_sameState_KL_Theo_A_14]	548	507	643	637	527
AAGCUCAGCGUGACUCGAUAAGAGUCACAACGAGGACCGGUACGGCCGCCACUCGAAAUAAGGGAGUGAUGUUCUCGCUGAGCAA [#SwitchBubble 5 #StaticStem #K4Late]	348	134	291	364	587
AAGGAUCAGAGAGUGAUGUUCUCUAAUAAACGAGGACCGGUACGGCCGCCACUCGAAUAAGAUCCAGUCCUACGAAAAGUAGGAC [Omei inspired 6]	431	338	485	613	132
AAGGCCACGAGAAGGAGCGUGUUGUGGAGUGAUGUUCCAUUGUAGACCUAAGGUCUGCAAGCACAGGUAGGUCGCUCGUGGUCAA [whbob_SS_Arginine_B_2t149]	127	123	139	138	127
AAGGGCCGGGCGGCCGCCACUGGUCGUGUACACGUACUAACCAGUGAUGUUGGUAUAGUACGCGACAGGACCGGGCCCGGCCCAA [Exclusion - Tryptophan B (Freestyle 30)]	405	359	445	297	236
AAGGGCGGGACUUUCUCGCCGGAUAGAGAUACCAGCCCAGCAAAGGGCCCUUGGCAGCUCACUGACCUCAGUGAUGUUGAGGUUC [Soerrainat]	295	240	242	199	266
AAGGUAUCUAGAUACAUUACUGAACUAGAUACCAGCAUCGAAAGAUGCCCUUGGCAGCUAGCAGUGAUGUUGCUAGCAAUAAGAA [Design3]	121	109	113	112	119
AAGGUUGUGCAUGGGAGUGAUGUUCCCAAGCAGGAUAUCGCUCACGCGAGAAGGGCUUGCACAACCGCUCAAGAAACUUGAGCAA [Omei KL FMN A SS C v6]	129	179	195	200	188
AAGGUUGUGCAUGGGAGUGAUGUUCCCACGCAGGAUAUCGCUCUCGCGAGAAGGGCGAGCACAACCGCUCAAGAAACUUGAGCAA [Omei KL FMN A SS C v3]	129	320	480	402	388

Sequence	apparent KD of K4 kissing-loop reporter (input ligand: FMN 200 uM) [nM]	apparent KD of K4 kissing-loop reporter (input ligand: arginine 13.2 mM) [nM]	apparent KD of K4 kissing-loop reporter (input ligand: none) [nM]	apparent KD of K4 kissing-loop reporter [1] [nM]	apparent KD of K4 kissing-loop reporter [2] [nM]
AAGGUUGUGCAUGGGAGUGAUGUUCCCAGGCAGGAUAUCGCUCACGCGAGAAGGGCUAGCACAACCGCUCAAGAAACUUGAGCAA [Omei KL FMN A SS C v4]	117	97.1	113	116	94.5
AAGUAGCUCUCGGCCGCCACUCCUCAGUGAUGUUGAGAUAUUAAGAGACAAUUGUCUCAUAUAAAGAGGACCGGGAGAGCUACAA [AK5 SS Tryptophan B]	445	384	439	460	133
AAGUGAUGUUGUAGUGAUGUUGUGAUGUUGCAGGAUAUAUAGUGAUGUAGAAGGGUAAGUACUGAUGUUGUUAGUAAGUGAUGUU [tvvbmullin]	106	50.1	89.9	76.6	77.8
AAGUGAUGUUGUAGUGAUGUUGUGAUGUUGCAGGAUAUAUAGUGAUGUAGAAGGGUAAGUACUGAUUUUGUUUGUGAGUGAUGUU [zqqzzrmullin]	92.8	40.1	73.8	61.1	67.8
AAGUGAUGUUGUAGUGAUGUUGUGAUGUUGCAGGAUAUAUAGUGAUGUAGAAGGGUAAGUACUGAUUUUUUUUUUGAGUGAUGUU [ccbyzrmullin]	96.4	43	74.5	53.9	73.8
AAGUGAUGUUGUAGUGAUGUUGUGAUGUUGCAGGAUAUAUAGUGAUGUAGAAGGGUAUGUACUGAUUUUUUUUUUGAGUGAUGUU [awaqmullin]	99.2	43	77.3	58.8	79.9
AAGUGCCUCAAGAGGCAGUAUCUGCCUCAACGAGGACCGGUACGGCCGCCACUCGAAUAAUAGAGUGAUGUUCUAAGAGGCACAA [AK1.5 SS Tryptophan A]	461	284	483	261	432
AAGUGUCAUUAGACACACUGAUGUAUAAACUAGGAUAUGCUGAUAAGCAGAAGGAGUGAUGUUCCUUUCAUCAUCAGAAUUAAAU [KL-XFMN-A2]	167	113	110	127	94.5
AAGUGUGUGGCGGCCGCCACUAGAAUCCAGUGAUGUUGGAAUAAUCAAAUAAAUAAUAAUAAACAUAGGACCGGGCCAUAUAGAA [Same State - Tryptophan B (Freestyle 1)]	145	140	145	157	139
AAGUGUGUGGCGGCCGCCACUAGAAUCCAGUGAUGUUGGAGAUAUCAGGUAACUGAUAUCCAACAUAGGACCGGGCCAUAUAGAA [Same State - Tryptophan B (Freestyle 11)]	152	104	144	108	91.9
AAGUGUGUGGCGGCCGCCACUAGUAUCCAGUGAUGUUGGAGAUAUCACGUAAGUGAUAUCCUACAUAGGACCGGGCCAUAUAGAA [Same State - Tryptophan B (Freestyle 20)]	392	391	337	540	510
AAGUGUUCUAGUGAUACCAGACAAUUUUAUUUUUUCUUUUUUGCUAAGUGAUGUUUAGCAGUCCCUUGGCAGCACUAUUUCACUA [JR_SSTheophyB_Sub018]	129	109	106	147	128
AAGUUGAACUGAAGGAGCGAGAAAUAGAAUGUAAGAAUAUAUGCUAGUGAUGUUAGAAAUUCUCAGGUAGGUCGCAGUAAGAUUU [V1.1]	277	328	330	558	192
AAUAAAAUCACGGCCGCCACUAAUGCUAGUAUUAGCAGUGAUGUUGCUAUGUAUAUUUUAUUUAAUAGGACCGGGUGAAUAUUUA [#23 K4 Tryptophan B Exclusion]	332	294	346	308	224
AAUAAAAUCACGGCCGCCACUGAAUAAUUGGUAAGUAGUGAUGUUACUUUACAUAUCUUAUUUAACAGGACCGGGUGAAUAUUUA [JR_ExcTryptoB_Sub008]	134	92.4	116	103	131
AAUAAAAUCACGGCCGCCACUGAAUAAUUGUUAAGUAGUGAUGUUACUUUACUUUUCUUAGUUAACAGGACCGGGUGAAUAUUUA [#18 K4 Tryptophan B Exclusion]	113	101	107	101	190

— the supplement of paper PMC9170038
